One assay deals with T1, human glypican-1 (GPC-1) (human, UniProt P35052 24-530).
T1 construct: whole, on cells; also called GPC-1 antigen
T1 sequence (looked up): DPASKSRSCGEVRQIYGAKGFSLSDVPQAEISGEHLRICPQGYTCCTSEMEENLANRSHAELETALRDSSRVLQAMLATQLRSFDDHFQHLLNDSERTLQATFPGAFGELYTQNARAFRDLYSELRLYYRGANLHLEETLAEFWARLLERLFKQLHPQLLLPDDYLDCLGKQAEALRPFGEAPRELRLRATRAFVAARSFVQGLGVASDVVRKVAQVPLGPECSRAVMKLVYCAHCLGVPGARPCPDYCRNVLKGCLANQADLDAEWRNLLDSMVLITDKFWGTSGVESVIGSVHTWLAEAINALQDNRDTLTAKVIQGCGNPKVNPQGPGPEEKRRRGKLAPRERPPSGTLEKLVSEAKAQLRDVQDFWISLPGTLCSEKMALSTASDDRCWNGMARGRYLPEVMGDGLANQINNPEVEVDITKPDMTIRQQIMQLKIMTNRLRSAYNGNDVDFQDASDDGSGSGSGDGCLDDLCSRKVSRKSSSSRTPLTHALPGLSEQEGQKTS
Kind of assay: statement opening Example 7; no assay named.

The next assay concerns the target T2, mouse GPC-1 (mouse, UniProt Q9QZF2 24-529).
T2 construct: whole, on cells; also called mouse glypican-1
T2 sequence (looked up): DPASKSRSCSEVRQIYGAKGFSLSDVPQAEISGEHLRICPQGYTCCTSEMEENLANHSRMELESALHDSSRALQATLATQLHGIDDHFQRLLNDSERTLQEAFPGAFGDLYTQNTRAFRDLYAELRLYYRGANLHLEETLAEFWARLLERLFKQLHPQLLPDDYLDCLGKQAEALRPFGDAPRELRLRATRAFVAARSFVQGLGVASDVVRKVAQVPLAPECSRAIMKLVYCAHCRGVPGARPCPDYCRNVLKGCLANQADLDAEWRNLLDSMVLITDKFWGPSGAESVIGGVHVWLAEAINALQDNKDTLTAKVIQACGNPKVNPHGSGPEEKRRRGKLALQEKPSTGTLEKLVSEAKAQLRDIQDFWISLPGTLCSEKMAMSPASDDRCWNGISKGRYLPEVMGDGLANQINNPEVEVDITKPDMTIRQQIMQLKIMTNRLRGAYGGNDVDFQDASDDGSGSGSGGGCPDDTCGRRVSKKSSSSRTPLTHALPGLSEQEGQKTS
Kind of assay: statement opening Example 7; no assay named.

These results are taken from patent US20220356265A1 (KEIO UNIVERSITY, published 2022).

B1: anti-GPC-1-CAR (Type A or Type B not stated) (other)
VH: AVTLDESGGGLQTPGRALSLVCKASGFTFSRYAMYWVRQAPGKGLEFVAGIGNTGRYTGYGSAVKGRATISRDSGQSTVRLQLNNLRAEDTGNYYCAKSVSPYCCDAADIDAWGHGTEVIVSS
VL: ASTQPSSVSANPGETVKITCSGGSSGYAYGWYQQKSPGSAPVTLLYSNNNRPSDIPSRFSGSKSGSTATLTITGVQAEDEAVYFCGSVDSSSYAGIFGAGTTLTVL
notes: VH and VL in truth stand in one CAR chain with a (Gly4Ser)3 linker, a human CD28-derived part and the human CD3zeta intracellular domain; also called GPC-1 CAR gene of the invention; CAR of the anti-GPC-1-CAR-T cells
With B1, the binding result in the assay with human glypican-1 (GPC-1) and with mouse GPC-1 was “binds” throughout.
